Measurements taken from paper PMC4769845, “Structures of EccB1 and EccD1 from the core complex of the mycobacterial ESX-1 type VII secretion system” (BMC Structural Biology, 2016).

Legend:
[1] = biological target: the molecule itself; assay: crystal structure; cyto-EccD1mt alone; sitting drop, 0.1 M Tris-HCl pH 8.5, 0.2 M Mg chloride, 30 % PEG4000; two molecules in the asymmetric unit; 1.88 Å
[2] = biological target: the molecule itself; assay: crystal structure; MBP-cyto-EccD1mt fusion, maltose-bound; sitting drop, 0.1 M HEPES pH 7.5, 1.4 M Na citrate; two molecules in the asymmetric unit; 2.20 Å

B1: cytoplasmic domain of EccD1 from M. tuberculosis (cyto-EccD1mt) (domain or fragment)
chain: ATTRVTILTGRRMTDLVLPAAVPMETYIDDTVAVLSEVLEDTPADVLGGFDFTAQGVWAFARPGSPPLKLDQSLDDAGVVDGSLLTLVS
notes: also called Rv3877; not shown: His6, N-terminal, cleaved
- binding result [1]: binds

B2: cyto-EccD1mt fused to maltose binding protein (MBP-cyto-EccD1mt) (domain or fragment)
chain: ATTRVTILTGRRMTDLVLPAAVPMETYIDDTVAVLSEVLEDTPADVLGGFDFTAQGVWAFARPGSPPLKLDQSLDDAGVVDGSLLTLVS
notes: EccD1 (Rv3877) of Mycobacterium tuberculosis H37Rv, cytoplasmic ubiquitin-like domain, residues 21-109, the same DNA fragment as in m1, placed after MBP; also called MBP fusion protein; not shown: His6, N-terminal, cleaved; MBP, N-terminal, kept
- binding result [2]: binds
